Source: IntAct's records for PubMed 27065194

B1: Protein BTG4 (Mus musculus), O70552 (parent)
chain: MRDEIATAVFFVTRLVKKHEKLSTQQIETFALKLMTILFEKYRGHWHPDCPSKGQAFRCIRINNNENKDPVLERACAESNVNFFHLGLPKEMTIWVDPYEVCCRYGEKKHPFTIASFKGRWENWELAQHVSCAVNRATGDCSSGTSSDEESCSREAQIIPKVNNPKSVYQVENFKQSLQPWFCLPRRKHLADGRGFLPGAACHPVPKSSKWCRPASRRVDRYHWVNAQLFSGQTAPGEPGEEALSSLKQK

Variants of: B1
Conditions: with cnot7_mouse Cnot7, Q60809
Sequence of cnot7_mouse Cnot7, Q60809 (Q60809 whole entry): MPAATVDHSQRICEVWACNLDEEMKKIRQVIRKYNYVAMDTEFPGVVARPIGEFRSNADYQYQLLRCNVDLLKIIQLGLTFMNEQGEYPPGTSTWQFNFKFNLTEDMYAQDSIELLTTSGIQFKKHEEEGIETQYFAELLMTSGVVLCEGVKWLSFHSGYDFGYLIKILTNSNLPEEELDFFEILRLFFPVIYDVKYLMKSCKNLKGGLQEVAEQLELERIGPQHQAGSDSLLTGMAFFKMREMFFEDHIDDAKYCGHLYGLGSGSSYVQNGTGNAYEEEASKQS

Variant	effect of a mutation on the interaction
H45A	disrupting interaction strength
W46A	disrupting interaction strength
R58A	disrupting interaction strength
C59A	decreasing interaction strength
D69A	disrupting interaction strength

More lines, now with the values ahead:

effect of a mutation on the interaction	Variant
disrupting interaction strength	W95A
disrupting interaction strength	E107A

Variants of: B1
Conditions: with cnot8_mouse Cnot8, Q9D8X5
Sequence of cnot8_mouse Cnot8, Q9D8X5 (Q9D8X5 whole entry): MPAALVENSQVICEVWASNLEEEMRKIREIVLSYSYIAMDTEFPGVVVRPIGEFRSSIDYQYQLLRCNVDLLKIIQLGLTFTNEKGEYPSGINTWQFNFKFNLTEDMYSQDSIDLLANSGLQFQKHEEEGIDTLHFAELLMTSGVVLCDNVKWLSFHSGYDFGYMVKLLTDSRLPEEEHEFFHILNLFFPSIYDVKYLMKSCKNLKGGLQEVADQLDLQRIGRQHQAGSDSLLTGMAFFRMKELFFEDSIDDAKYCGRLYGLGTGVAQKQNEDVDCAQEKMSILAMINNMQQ

Variant	effect of a mutation on the interaction
W95A	disrupting interaction strength
